Data on 19 molecules can be found in patent US20090060919A1 (AstraZeneca / MedImmune, published 2009).

Experiment [1] addresses T1, human IgEλ (U266 derived) (human, UniProt P01854-1 1-428).
T1 construct: Whole IgE purified from U266 cells (Ikeyama et al. 1986); labelled with europium cryptate or biotin in some assays; also called human IgE (U266-derived); human IgE lambda
Briefly: HTRF competition: scFv against Eu-cryptate human IgE binding to human FcεRI-Fc; geomean (95% CI). A general note: In TR-FRET formats the signal depends on donor and acceptor labels being close together.

Experiment [2] addresses T1, human IgEλ (U266 derived). The experiment can be described thus: cell-based or functional assay.
Experiment [3] concerns the target T1, human IgEλ (U266 derived). The experiment can be described thus: SPR (BIAcore 2000): IgG captured on protein G', IgE as analyte, bivalent analyte model; geomean. (SPR reads the build-up and loss of mass on a sensor chip optically.)
Protocol: In brief, Protein G′ (Sigma Aldrich, P4689) was covalently coupled to the surface of a CM5 sensor chip using standard amine coupling reagents according to manufacturer's instructions (BIAcore). […] The resulting sensorgrams were evaluated using BIA evaluation 3.1 software and fitted to a bivalent analyte model, to provide relative binding data.
Experiment [4] concerns the target T1, human IgEλ (U266 derived). Briefly: HTRF competition: scFv against Eu-cryptate human IgE binding to human FcεRI-Fc.

T1 sequence (P01854 other isoform, or with tags, fused parts or gaps): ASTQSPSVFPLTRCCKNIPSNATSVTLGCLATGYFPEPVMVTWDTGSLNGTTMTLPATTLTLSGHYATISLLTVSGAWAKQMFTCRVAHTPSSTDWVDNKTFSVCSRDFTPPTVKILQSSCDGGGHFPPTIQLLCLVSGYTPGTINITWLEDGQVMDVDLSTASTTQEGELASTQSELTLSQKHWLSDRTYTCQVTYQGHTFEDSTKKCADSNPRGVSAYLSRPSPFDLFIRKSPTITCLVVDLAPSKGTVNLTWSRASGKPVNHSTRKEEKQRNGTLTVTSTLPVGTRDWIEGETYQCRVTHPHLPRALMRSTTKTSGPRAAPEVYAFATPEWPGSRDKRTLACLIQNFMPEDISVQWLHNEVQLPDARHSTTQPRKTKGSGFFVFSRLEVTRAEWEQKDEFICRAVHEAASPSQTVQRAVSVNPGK

B1: Antibody 1 scFv (scFv, V domains shown)
VH: QVQLVQSGAEVKKPGATVKLSCKVYGYIFTDYNIYWVRQAPGKGLEWMGLIDPDNGETFYAEKFQGRATMTADTSSDRAYMELTSLTFEDTATYYCATVLHRRLKGGYDYWGRGTLVTVSS
VL: QSVLTQPPSVSGAPGQRVTISCTGSSSNIGAGYDVHWYQQLPGTAPKLLIYDNFNRPSGVPDRFSGSKSGTSASLAIIGLQTEDEADYYCQSYDSSLSGSLFGTGTKLTVL
notes: Purified scFv, non-germlined; also called parent; not shown: scFv linker and any tags; the libraries are only cited to Vaughan et al. 1996
For B1, the 50% inhibitory concentration (IC50) (as a rule, the point on the concentration scale where inhibition reaches its midpoint) in experiment [1] was found to be 475 nM.

B2: Antibody 18 IgG (antibody, V domains shown)
VH: QVQLVQSGAEVKKPGATVKLSCKVYGYIFTDYNIYWVRQAPGKGLEWMGLIDPDNGETFYAEKFQGRATMTADTSSDRAYMELTSLTFEDTATYYCATVLLRSAKGGYDYWGRGTLVTVSS
VL: QSVLTQPPSVSGAPGQRVTISCTGSSSNIGAGYDVHWYQQLPGTAPKLLIYDNFNRPSGVPDRFSGSKSGTSASLAIIGLQTEDEADYYCQSYDSHLQLSPFGTGTKLTVL
notes: Whole human IgG (section 1.4: IgG1)
Turning to B2, in experiment [2], the “RBL-ER51 calcium signalling IC50 (Geomean), Human IgE” value (“RBL-ER51 calcium signalling IC50” below) turned out to be 0.532 nM. In experiment [3], this molecule returned a Kd of 8 nM.

B3: Antibody 16 IgG (antibody, V domains shown)
VH: QVQLVQSGAEVKKPGATVKLSCKVYGYIFTDYNIYWVRQAPGKGLEWMGLIDPDNGETFYAEKFQGRATMTADTSSDRAYMELTSLTFEDTATYYCATVSLKSAKGGYDYWGRGTLVTVSS
VL: QSVLTQPPSVSGAPGQRVTISCTGSSSNIGAGYDVHWYQQLPGTAPKLLIYDNFNRPSGVPDRFSGSKSGTSASLAIIGLQTEDEADYYCQSYDSRHHHAPFGTGTKLTVL
notes: as for B2
With B3, the “RBL-ER51 calcium signalling IC50” value in experiment [2] was determined as 0.292 nM. In experiment [3], this molecule displayed a Kd of 4.6 nM.

B4: Antibody 5 scFv (scFv, V domains shown)
VH: QVQLVQSGAEVKKPGATVKLSCKVYGYIFTDYNIYWVRQAPGKGLEWMGLIDPDNGETFYAEKFQGRATMTADTSSDRAYMELTSLTFEDTATYYCATVMGKWIKGGYDYWGRGTLVTVSS
VL: QSVLTQPPSVSGAPGQRVTISCTGSSSNIGAGYDVHWYQQLPGTAPKLLIYDNFNRPSGVPDRFSGSKSGTSASLAIIGLQTEDEADYYCQSYDSTKHTSPFGTGTKLTVL
notes: Purified scFv, non-germlined; not shown: scFv linker and any tags; the libraries are only cited to Vaughan et al. 1996
On to B4, for which, in experiment [1], the half-maximal inhibitory concentration (IC50) worked out at 3 nM.

B5: Antibody 16 scFv (scFv, V domains shown)
VH: QVQLVQSGAEVKKPGATVKLSCKVYGYIFTDYNIYWVRQAPGKGLEWMGLIDPDNGETFYAEKFQGRATMTADTSSDRAYMELTSLTFEDTATYYCATVSLKSAKGGYDYWGRGTLVTVSS
VL: QSVLTQPPSVSGAPGQRVTISCTGSSSNIGAGYDVHWYQQLPGTAPKLLIYDNFNRPSGVPDRFSGSKSGTSASLAIIGLQTEDEADYYCQSYDSRHHHAPFGTGTKLTVL
notes: Purified scFv, non-germlined
B5 returned a half-maximal inhibitory concentration (IC50) in experiment [1] of 5 nM.

B6: Antibody 13 IgG (antibody, V domains shown)
VH: QVQLVQSGAEVKKPGATVKLSCKVYGYIFTDYNIYWVRQAPGKGLEWMGLIDPDNGETFYAEKFQGRATMTADTSSDRAYMELTSLTFEDTATYYCATVMGKWIKGGYDYWGRGTLVTVSS
VL: QSVLTQPPSVSGAPGQRVTISCTGSSSNIGAGYDVHWYQQLPGTAPKLLIYDNFNRPSGVPDRFSGSKSGTSASLAIIGLQTEDEADYYCQSYDSNILYSPFGTGTKLTVL
notes: as for B2
Consider B6, for which the “RBL-ER51 calcium signalling IC50” value in experiment [2] came out at 0.088 nM. In experiment [3], the Kd is 2.3 nM.

B7: Antibody 28 scFv (scFv, V domains shown)
VH: QVQLVQSGAEVKKPGATVKLSCKVYGYIFTDYNIYWVRQAPGKGLEWMGLIDPDNGETFYAEKFQGRATMTADTSSDRAYMELTSLTFEDTATYYCATVMGKWIKGGYDYWGRGTLVTVSS
VL: QSVLTQPPSVSGAPGQRVTISCTGSSSNIGAGYDVHWYQQLPGTAPKLLIYDNFNRPSGVPDRFSGSKSGTSASLAIIGLQTEDEADYYCQSYDSSSLHSPFGTGTKLTVL
notes: Purified scFv, non-germlined
In the case of B7, the half-inhibitory concentration (IC50) in experiment [4] came to 1 nM.

B8: Antibody 4 scFv (scFv, V domains shown)
VH: QVQLVQSGAEVKKPGATVKLSCKVYGYIFTDYNIYWVRQAPGKGLEWMGLIDPDNGETFYAEKFQGRATMTADTSSDRAYMELTSLTFEDTATYYCATVMGKWIKGGYDYWGRGTLVTVSS
VL: QSVLTQPPSVSGAPGQRVTISCTGSSSNIGAGYDVHWYQQLPGTAPKLLIYDNFNRPSGVPDRFSGSKSGTSASLAIIGLQTEDEADYYCQSYDSRGGHSPFGTGTKLTVL
notes: as for B4
Turning to B8, the IC50 in experiment [1] is 2 nM.

B9: Antibody 23 IgG (antibody, V domains shown)
VH: QVQLVQSGAEVKKPGATVKLSCKVYGYIFTDYNIYWVRQAPGKGLEWMGLIDPDNGETFYAEKFQGRATMTADTSSDRAYMELTSLTFEDTATYYCATVMGKWIKGGYDYWGRGTLVTVSS
VL: QSVLTQPPSVSGAPGQRVTISCTGSSSNIGAGYDVHWYQQLPGTAPKLLIYDNFNRPSGVPDRFSGSKSGTSASLAIIGLQTEDEADYYCQSYDSHHLYSSFGTGTKLTVL
notes: as for B2
Consider B9, for which, in experiment [2], the “RBL-ER51 calcium signalling IC50” value was 0.109 nM. This molecule also had a Kd in experiment [3] of 2.7 nM.

B10: Antibody 27 scFv (scFv, V domains shown)
VH: QVQLVQSGAEVKKPGATVKLSCKVYGYIFTDYNIYWVRQAPGKGLEWMGLIDPDNGETFYAEKFQGRATMTADTSSDRAYMELTSLTFEDTATYYCATVSLKEAKGGYDYWGRGTLVTVSS
VL: QSVLTQPPSVSGAPGQRVTISCTGSSSNIGAGYDVHWYQQLPGTAPKLLIYDNFNRPSGVPDRFSGSKSGTSASLAIIGLQTEDEADYYCQSYDSPTQTSPFGTGTKLTVL
notes: Purified scFv, non-germlined
For the molecule B10, in experiment [4], the concentration for half-maximal inhibition (IC50) is 9 nM.

B11: Antibody 4 IgG (antibody, V domains shown)
VH: QVQLVQSGAEVKKPGATVKLSCKVYGYIFTDYNIYWVRQAPGKGLEWMGLIDPDNGETFYAEKFQGRATMTADTSSDRAYMELTSLTFEDTATYYCATVMGKWIKGGYDYWGRGTLVTVSS
VL: QSVLTQPPSVSGAPGQRVTISCTGSSSNIGAGYDVHWYQQLPGTAPKLLIYDNFNRPSGVPDRFSGSKSGTSASLAIIGLQTEDEADYYCQSYDSRGGHSPFGTGTKLTVL
notes: as for B2
With B11, in experiment [2], the “RBL-ER51 calcium signalling IC50” value was 0.088 nM. The Kd in experiment [3] is 2.1 nM.

B12: Antibody 8 scFv (scFv, V domains shown)
VH: QVQLVQSGAEVKKPGATVKLSCKVYGYIFTDYNIYWVRQAPGKGLEWMGLIDPDNGETFYAEKFQGRATMTADTSSDRAYMELTSLTFEDTATYYCATVLGRWIKGGYDYWGRGTLVTVSS
VL: QSVLTQPPSVSGAPGQRVTISCTGSSSNIGAGYDVHWYQQLPGTAPKLLIYDNFNRPSGVPDRFSGSKSGTSASLAIIGLQTEDEADYYCQSYDSPTHTSPFGTGTKLTVL
notes: Purified scFv, non-germlined
As to B12, the IC50 in experiment [1] turned out to be 5 nM.

B13: Antibody 28 IgG (antibody, V domains shown)
VH: QVQLVQSGAEVKKPGATVKLSCKVYGYIFTDYNIYWVRQAPGKGLEWMGLIDPDNGETFYAEKFQGRATMTADTSSDRAYMELTSLTFEDTATYYCATVMGKWIKGGYDYWGRGTLVTVSS
VL: QSVLTQPPSVSGAPGQRVTISCTGSSSNIGAGYDVHWYQQLPGTAPKLLIYDNFNRPSGVPDRFSGSKSGTSASLAIIGLQTEDEADYYCQSYDSSSLHSPFGTGTKLTVL
notes: as for B2
Regarding B13, the “RBL-ER51 calcium signalling IC50” value in experiment [2] was 0.099 nM. Moreover, the Kd in experiment [3] came out at 3.2 nM.

B14: Antibody 20 IgG (antibody, V domains shown)
VH: QVQLVQSGAEVKKPGATVKLSCKVYGYIFTDYNIYWVRQAPGKGLEWMGLIDPDNGETFYAEKFQGRATMTADTSSDRAYMELTSLTFEDTATYYCATVMGKWIKGGYDYWGRGTLVTVSS
VL: QSVLTQPPSVSGAPGQRVTISCTGSSSNIGAGYDVHWYQQLPGTAPKLLIYDNFNRPSGVPDRFSGSKSGTSASLAIIGLQTEDEADYYCQSYDSSTSSSPFGTGTKLTVL
notes: as for B2
As to B14, in experiment [2], the “RBL-ER51 calcium signalling IC50” value came out at 0.191 nM. Moreover, the Kd in experiment [3] is 3.3 nM.

B15: Antibody 6 IgG (antibody, V domains shown)
VH: QVQLVQSGAEVKKPGATVKLSCKVYGYIFTDYNIYWVRQAPGKGLEWMGLIDPDNGETFYAEKFQGRATMTADTSSDRAYMELTSLTFEDTATYYCATVMGKWIKGGYDYWGRGTLVTVSS
VL: QSVLTQPPSVSGAPGQRVTISCTGSSSNIGAGYDVHWYQQLPGTAPKLLIYDNFNRPSGVPDRFSGSKSGTSASLAIIGLQTEDEADYYCQSYDSTMRHGPFGTGTKLTVL
notes: as for B2
For B15, the “RBL-ER51 calcium signalling IC50” value in experiment [2] was found to be 0.096 nM. In experiment [3], the Kd amounted to 2.1 nM.

B16: Antibody 11 scFv (scFv, V domains shown)
VH: QVQLVQSGAEVKKPGATVKLSCKVYGYIFTDYNIYWVRQAPGKGLEWMGLIDPDNGETFYAEKFQGRATMTADTSSDRAYMELTSLTFEDTATYYCATVMGKWIKGGYDYWGRGTLVTVSS
VL: QSVLTQPPSVSGAPGQRVTISCTGSSSNIGAGYDVHWYQQLPGTAPKLLIYDNFNRPSGVPDRFSGSKSGTSASLAIIGLQTEDEADYYCQSYDSPTLTSPFGTGTKLTVL
notes: Purified scFv, non-germlined
In experiment [1], B16 came in with a 50% inhibitory concentration (IC50) of 2 nM.

B17: Antibody 19 IgG (antibody, V domains shown)
VH: QVQLVQSGAEVKKPGATVKLSCKVYGYIFTDYNIYWVRQAPGKGLEWMGLIDPDNGETFYAEKFQGRATMTADTSSDRAYMELTSLTFEDTATYYCATVMGKWIKGGYDYWGRGTLVTVSS
VL: QSVLTQPPSVSGAPGQRVTISCTGSSSNIGAGYDVHWYQQLPGTAPKLLIYDNFNRPSGVPDRFSGSKSGTSASLAIIGLQTEDEADYYCQSYDSTLSHSPFGTGTKLTVL
notes: as for B2
On to B17, for which, in experiment [2], the “RBL-ER51 calcium signalling IC50” value amounted to 0.095 nM. Also, the Kd in experiment [3] stood at 2.5 nM.

B18: Antibody 5 IgG (antibody, V domains shown)
VH: QVQLVQSGAEVKKPGATVKLSCKVYGYIFTDYNIYWVRQAPGKGLEWMGLIDPDNGETFYAEKFQGRATMTADTSSDRAYMELTSLTFEDTATYYCATVMGKWIKGGYDYWGRGTLVTVSS
VL: QSVLTQPPSVSGAPGQRVTISCTGSSSNIGAGYDVHWYQQLPGTAPKLLIYDNFNRPSGVPDRFSGSKSGTSASLAIIGLQTEDEADYYCQSYDSTKHTSPFGTGTKLTVL
notes: as for B2
Turning to B18, the “RBL-ER51 calcium signalling IC50” value in experiment [2] was 0.091 nM. Besides, the Kd in experiment [3] came to 2.4 nM.

B19: Antibody 12 IgG (antibody, V domains shown)
VH: QVQLVQSGAEVKKPGATVKLSCKVYGYIFTDYNIYWVRQAPGKGLEWMGLIDPDNGETFYAEKFQGRATMTADTSSDRAYMELTSLTFEDTATYYCATVMGKWIKGGYDYWGRGTLVTVSS
VL: QSVLTQPPSVSGAPGQRVTISCTGSSSNIGAGYDVHWYQQLPGTAPKLLIYDNFNRPSGVPDRFSGSKSGTSASLAIIGLQTEDEADYYCQSYDSSIDHSPFGTGTKLTVL
notes: as for B2
On to B19, for which the “RBL-ER51 calcium signalling IC50” value in experiment [2] worked out at 0.134 nM. The molecule further displayed a Kd in experiment [3] of 2.3 nM.
